Data set [1] relates to HeLa Kyoto. The data set can be described thus: solubility in G1/S (NP-40 vs SDS abundance) (log2 ratio); higher = more soluble. Particulars: cell cycle stage: G1/S.
Data set [2] deals with HeLa Kyoto. The data set can be described thus: melting temperature (median over replicates), in situ; higher = more thermally stable.
Data set [3] deals with HeLa Kyoto. The data set can be described thus: solubility change mitosis vs G1/S (difference of NP-40 vs SDS log2 ratios) (log2 ratio difference); higher = more soluble in mitosis.
Data set [4] concerns HeLa Kyoto. The data set can be described thus: thermal stability score vs G1/S (z-score of summed log2 fold changes over temperatures); higher = more thermally stable than in G1/S.
Where [5] appears, read: cell cycle stage: early G1 (4.5 h after nocodazole release).
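For melting temperature (median over replicates), in situ in this document: HeLa Kyoto cells synchronized by double thymidine or nocodazole block, proteins quantified by TMT10plex mass spectrometry, three independent biological replicates.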
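For solubility change mitosis vs G1/S (difference of NP-40 vs SDS log2 ratios) in this document: synchronized HeLa Kyoto cells (double thymidine block for G1/S, nocodazole release for mitosis), protein amounts in NP-40 versus SDS lysates quantified by mass spectrometry, three biological replicates.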
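For solubility in G1/S (NP-40 vs SDS abundance) in this document: HeLa Kyoto cells arrested at G1/S by double thymidine block, proteins quantified by TMT10plex mass spectrometry in mild NP-40 versus SDS extracts, three biological replicates.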
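For thermal stability score vs G1/S (z-score of summed log2 fold changes over temperatures) in this document: synchronized HeLa Kyoto cells, proteins quantified by TMT10plex mass spectrometry, three biological replicates, mitosis taken 0.5 h after nocodazole release, G1/S directly after double thymidine block.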

As to “MPLSRWLRSVGVFLLPAPYWAPRERWLGSLRRPSLVHGYPVLAWHSARCWCQAWTEEPRALCSSLRMNGDQNSDVYAQEKQDFVQHFSQIVRVLTEDEMGHPEIGDAIARLKEVLEYNAIGGKYNRGLTVVVAFRELVEPRKQDADSLQRAWTVGWCVELLQAFFLVADDIMDSSLTRRGQICWYQKPGVGLDAINDANLLEACIYRLLKLYCREQPYYLNLIELFLQSSYQTEIGQTLDLLTAPQGNVDLVRFTEKRYKSIVKYKTAFYSFYLPIAAAMYMAGIDGEKEHANAKKILLEMGEFFQIQDDYLDLFGDPSVTGKIGTDIQDNKCSWLVVQCLQRATPEQYQILKENYGQKEAEKVARVKALYEELDLPAVFLQYEEDSYSHIMALIEQYAAPLPPAVFLGLARKIYKRRK [FDPS]”, in the data set on HeLa Kyoto [1], the “solubility in G1/S (log2)” value came to 0.151. Besides, the values for the melting temperature with HeLa Kyoto [2] (cell cycle stage: G1/S) and in the data set on HeLa Kyoto [2] (cell cycle stage: mitosis) were 50.8 °C and 51 °C, respectively. In addition, the “solubility change mitosis (log2)” value in the data set with HeLa Kyoto [3] is -0.0646. Moreover, the thermal stability score with HeLa Kyoto [4] (setting [5]) worked out at 2.88; in the data set with HeLa Kyoto [4] (cell cycle stage: mitosis) it was 3.37.
For “MPNWGGGKKCGVCQKTVYFAEEVQCEGNSFHKSCFLCMVCKKNLDSTTVAVHGEEIYCKSCYGKKYGPKGYGYGQGAGTLSTDKGESLGIKHEEAPGHRPTTNPNASKFAQKIGGSERCPRCSQAVYAAEKVIGAGKSWHKACFRCAKCGKGLESTTLADKDGEIYCKGCYAKNFGPKGFGFGQGAGALVHSE [CSRP1]”, the “solubility in G1/S (log2)” value in the data set on HeLa Kyoto [1] is -0.0793. For the same sequence, in the data set on HeLa Kyoto [2] (cell cycle stage: G1/S), the melting temperature worked out at 60.2 °C. Moreover, in the data set on HeLa Kyoto [3], the “solubility change mitosis (log2)” value is -0.142. Moreover, the thermal stability score in the data set with HeLa Kyoto [4] (setting [5]) is -1.5; with HeLa Kyoto [4] (cell cycle stage: mitosis), -2.91.
Consider “MPPKKQAQAGGSKKAEQKKKEKIIEDKTFGLKNKKGAKQQKFIKAVTHQVKFGQQNPRQVAQSEAEKKLKKDDKKKELQELNELFKPVVAAQKISKGADPKSVVCAFFKQGQCTKGDKCKFSHDLTLERKCEKRSVYIDARDEELEKDTMDNWDEKKLEEVVNKKHGEAEKKKPKTQIVCKHFLEAIENNKYGWFWVCPGGGDICMYRHALPPGFVLKKDKKKEEKEDEISLEDLIERERSALGPNVTKITLESFLAWKKRKRQEKIDKLEQDMERRKADFKAGKALVISGREVFEFRPELVNDDDEEADDTRYTQGTGGDEVDDSVSVNDIDLSLYIPRDVDETGITVASLERFSTYTSDKDENKLSEASGGRAENGERSDLEEDNEREGTENGAIDAVPVDENLFTGEDLDELEEELNTLDLEE [ZC3H15]”, for which the “solubility in G1/S (log2)” value in the data set with HeLa Kyoto [1] was -0.131. Also, the melting temperature with HeLa Kyoto [2] (cell cycle stage: G1/S) amounted to 54.1 °C; with HeLa Kyoto [2] (cell cycle stage: mitosis), 53.6 °C. Moreover, the “solubility change mitosis (log2)” value in the data set with HeLa Kyoto [3] is -0.0422. For the same sequence, the thermal stability score is 0.581 with HeLa Kyoto [4] (setting [5]) and -2.59 with HeLa Kyoto [4] (cell cycle stage: mitosis).
As for “MPPRRSIVEVKVLDVQKRRVPNKHYVYIIRVTWSSGSTEAIYRRYSKFFDLQMQMLDKFPMEGGQKDPKQRIIPFLPGKILFRRSHIRDVAVKRLIPIDEYCKALIQLPPYISQCDEVLQFFETRPEDLNPPKEEHIGKKKSGGDQTSVDPMVLEQYVVVANYQKQESSEISLSVGQVVDIIEKNESGWWFVSTAEEQGWVPATCLEGQDGVQDEFSLQPEEEEKYTVIYPYTARDQDEMNLERGAVVEVIQKNLEGWWKIRYQGKEGWAPASYLKKNSGEPLPPKPGPGSPSHPGALDLDGVSRQQNAVGREKELLSSQRDGRFEGRPVPDGDAKQRSPKMRQRPPPRRDMTIPRGLNLPKPPIPPQVEEEYYTIAEFQTTIPDGISFQAGLKVEVIEKNLSGWWYIQIEDKEGWAPATFIDKYKKTSNASRPNFLAPLPHEVTQLRLGEAAALENNTGSEATGPSRPLPDAPHGVMDSGLPWSKDWKGSKDVLRKASSDMSASAGYEEISDPDMEEKPSLPPRKESIIKSEGELLERERERQRTEQLRGPTPKPPGVILPMMPAKHIPPARDSRRPEPKPDKSRLFQLKNDMGLECGHKVLAKEVKKPNLRPISKSKTDLPEEKPDATPQNPFLKSRPQVRPKPAPSPKTEPPQGEDQVDICNLRSKLRPAKSQDKSLLDGEGPQAVGGQDVAFSRSFLPGEGPGRAQDRTGKQDGLSPKEISCRAPPRPAKTTDPVSKSVPVPLQEAPQQRPVVPPRRPPPPKKTSSSSRPLPEVRGPQCEGHESRAAPTPGRALLVPPKAKPFLSNSLGGQDDTRGKGSLGPWGTGKIGENREKAAAASVPNADGLKDSLYVAVADFEGDKDTSSFQEGTVFEVREKNSSGWWFCQVLSGAPSWEGWIPSNYLRKKP [SH3PXD2B]”, the “solubility in G1/S (log2)” value with HeLa Kyoto [1] was -0.0158. In addition, the figures for the melting temperature with HeLa Kyoto [2] (cell cycle stage: G1/S) and in the data set on HeLa Kyoto [2] (cell cycle stage: mitosis) were 48.9 °C and 49.9 °C, respectively. In addition, the “solubility change mitosis (log2)” value in the data set on HeLa Kyoto [3] is -0.129. For the same sequence, the figures for the thermal stability score in the data set with HeLa Kyoto [4] (setting [5]) and in the data set on HeLa Kyoto [4] (cell cycle stage: mitosis) were -0.513 and 0.253, respectively.
For “MPSSPLRVAVVCSSNQNRSMEAHNILSKRGFSVRSFGTGTHVKLPGPAPDKPNVYDFKTTYDQMYNDLLRKDKELYTQNGILHMLDRNKRIKPRPERFQNCKDLFDLILTCEERVYDQVVEDLNSREQETCQPVHVVNVDIQDNHEEATLGAFLICELCQCIQHTEDMENEIDELLQEFEEKSGRTFLHTVCFY [SSU72]”, the “solubility in G1/S (log2)” value in the data set with HeLa Kyoto [1] was determined as 0.4. In addition, the melting temperature in the data set on HeLa Kyoto [2] (cell cycle stage: G1/S) worked out at 48.1 °C; with HeLa Kyoto [2] (cell cycle stage: mitosis) it was 49.4 °C. The “solubility change mitosis (log2)” value in the data set with HeLa Kyoto [3] was -0.0234. For the same sequence, the thermal stability score was 0.263 with HeLa Kyoto [4] (setting [5]) and -0.182 in the data set on HeLa Kyoto [4] (cell cycle stage: mitosis).
As to “MPSTNRAGSLKDPEIAELFFKEDPEKLFTDLREIGHGSFGAVYFARDVRTNEVVAIKKMSYSGKQSTEKWQDIIKEVKFLQRIKHPNSIEYKGCYLREHTAWLVMEYCLGSASDLLEVHKKPLQEVEIAAITHGALQGLAYLHSHTMIHRDIKAGNILLTEPGQVKLADFGSASMASPANSFVGTPYWMAPEVILAMDEGQYDGKVDVWSLGITCIELAERKPPLFNMNAMSALYHIAQNESPTLQSNEWSDYFRNFVDSCLQKIPQDRPTSEELLKHIFVLRERPETVLIDLIQRTKDAVRELDNLQYRKMKKLLFQEAHNGPAVEAQEEEEEQDHGVGRTGTVNSVGSNQSIPSMSISASSQSSSVNSLPDVSDDKSELDMMEGDHTVMSNSSVIHLKPEEENYREEGDPRTRASDPQSPPQVSRHKSHYRNREHFATIRTASLVTRQMQEHEQDSELREQMSGYKRMRRQHQKQLMTLENKLKAEMDEHRLRLDKDLETQRNNFAAEMEKLIKKHQAAMEKEAKVMSNEEKKFQQHIQAQQKKELNSFLESQKREYKLRKEQLKEELNENQSTPKKEKQEWLSKQKENIQHFQAEEEANLLRRQRQYLELECRRFKRRMLLGRHNLEQDLVREELNKRQTQKDLEHAMLLRQHESMQELEFRHLNTIQKMRCELIRLQHQTELTNQLEYNKRRERELRRKHVMEVRQQPKSLKSKELQIKKQFQDTCKIQTRQYKALRNHLLETTPKSEHKAVLKRLKEEQTRKLAILAEQYDHSINEMLSTQALRLDEAQEAECQVLKMQLQQELELLNAYQSKIKMQAEAQHDRELRELEQRVSLRRALLEQKIEEEMLALQNERTERIRSLLERQAREIEAFDSESMRLGFSNMVLSNLSPEAFSHSYPGASGWSHNPTGGPGPHWGHPMGGPPQAWGHPMQGGPQPWGHPSGPMQGVPRGSSMGVRNSPQALRRTASGGRTEQGMSRSTSVTSQISNGSHMSYT [TAOK1]”, the “solubility in G1/S (log2)” value in the data set with HeLa Kyoto [1] was determined as 0.0325. Also, the melting temperature in the data set on HeLa Kyoto [2] (cell cycle stage: G1/S) was determined as 51.7 °C; with HeLa Kyoto [2] (cell cycle stage: mitosis), 50.8 °C. Further, the “solubility change mitosis (log2)” value in the data set with HeLa Kyoto [3] was -0.0943. The thermal stability score is 0.109 in the data set on HeLa Kyoto [4] (setting [5]) and -0.35 in the data set on HeLa Kyoto [4] (cell cycle stage: mitosis).

These data come from the supplement of paper PMC5998384.
